From patent publication US20190262327A1 (AstraZeneca / MedImmune, published 2019)
Positions count from the first letter of the chain named.

B1: Abet0343 scFv (scFv, V domains shown, not shown: small tags and cut ends)
VH: EVQLLESGGGLVQPGGSLRLSCAASGFNFNHQVMWWVRQAPGKGLEWVSVIGKTNENIAYADSVKGRFTISRDNSKNTLYLQMNSLRAEDTAVYYCAREWMDHSRPYYYYGMDVWGQGTLVTVSS
VL: QSVLTQPPSVSVSPGQTASITCSGHNLEDKFASWYQQKSGQSPVLVIYRDDKRPSGIPERFSASNSGHTATLTISGTQATDEADYYCSSQDTVTRVFGGGTKLTVL
notes: Purified scFv expressed in E. coli
B2: Abet0372 scFv (scFv, V domains shown, not shown: small tags and cut ends)
VH: EVQLLESGGGLVQPGGSLRLSCAASSDMFNIETMWWVRQAPGKGLEWVSVIGKGMNNVSYADSVKGRFTISRDNSKNTLYLQMNSLRAEDTAVYYCAREWMDHSRPYYYYGMDVWGQGTLVTVSS
VL: B1 VL with Q1S, S2Y, V3E, S39P
notes: as for B1
B3: Abet0319 scFv (scFv, V domains shown, not shown: small tags and cut ends)
VH: EVQLLESGGGLVQPGGSLRLSCAASVSVYNKDTMWWVRQAPGKGLEWVSVIGSSGGTTVYADSVKGRFTISRDNSKNTLYLQMNSLRAEDTAVYYCAREWMDHSRPYYYYGMDVWGQGTLVTVSS
VL: B1 VL with Q1S, S2Y, V3E, L27I, E28M, F31W, A32V, S39P, Q41R, V44A
notes: as for B1
B4: Abet0371 scFv (scFv, V domains shown, not shown: small tags and cut ends)
VH: B3 VH with L5S, V26H, S27D, V28A, Y29F, N30P, K31F, I70V
VL: B1 VL with Q1S, S2Y, V3E, L27I, E28S, D29S, K30S, F31W, A32V, S39P
notes: as for B1
B5: Abet0373 scFv (scFv, V domains shown, not shown: small tags and cut ends)
VH: EVQLLESGGGLVQPGGSLRLSCVASGFDFERSVMWWVRQAPGKRLEWVSVIGSGKTNITYADSVKGRFTISRDNSKNTLYLQMNSLRAEDTAVYYCAREWMDHSRPYYYYGMDVWGQGTLVTVSS
VL: B1 VL with Q1S, S2Y, V3E, S39P, G56E
notes: as for B1
B6: Abet0374 scFv (scFv, V domains shown, not shown: small tags and cut ends)
VH: EVQLLESGGGLVQPGGSLRLSCAASGFQFKDTPMWWVRQAPGKGLEWVSVIGDQNHKKAYADSVKGRFTISRDNSKNTLYLQMNSLRAEDTAVYYCAREWMDHSRPYYYYGMDAWGQGTLVTVSS
VL: B1 VL with Q1S, S2Y, V3E, S13T, E28G, D29G, S39P, S66F
notes: as for B1
B7: Abet0321b scFv (scFv, V domains shown, not shown: small tags and cut ends)
VH: B3 VH with V26A, S27Y, V28H, Y29S, K31H, T33P, V59A
VL: B1 VL with Q1S, S2Y, V3E, S39P, V46I
notes: as for B1
B8: Abet0378 scFv (scFv, V domains shown, not shown: small tags and cut ends)
VH: B1 VH with N28P, N30E, H31T, Q32D, V33I, K53T, T54N, N55T, E56D, I58V
VL: B1 VL with Q1S, S2Y, V3E, S39P
B9: Abet0379 scFv (scFv, V domains shown, not shown: small tags and cut ends)
VH: EVQLLESGGGLVQPGGSLRLSCAASGFDFAETPLWWVRQAPGERLEWVSVIGSNQNKTAYADSVKGRFTISRDNSKDTLYLQMNSLRAEDTAVYYCAREWMDHSRPYYYYGMDVWGQGTLVTVSS
VL: B1 VL with E82G, S88A, S89T, T92N, V93F
notes: as for B1
B10: Abet0381 scFv (scFv, V domains shown, not shown: small tags and cut ends)
VH: EVQLLESGGGLVQPGGSLRLSCAASSPSFPRETMWWVRQAPGKGLEWVSVIGTQPNRLTYADSVKGRFTISRDNSKNTLYLQMNSLRAEDTAVYYCAREWMDHSRPYYYYGIDVWGQGTLVTVSP
VL: B1 VL with Q1S, S2Y, V3E, V12A, A32V, S39P, D84N, V96A
notes: as for B1
B11: Abet0383 scFv (scFv, V domains shown, not shown: small tags and cut ends)
VH: EVQLLESGGGLVQPGGSLKLSCAASGFTFDWYPMWWVRQAPGKRLEWISVIGADNAKIAYADSVKGRFTISRDNSKNTLYLQMNSLRAEDTAVYYCAREWMGHSRPYYYYGMDVWGQGTPVTVSS
VL: B1 VL with Q1S, S2Y, V3E, E28G, S39P
notes: as for B1
B12: Abet0322b scFv (scFv, V domains shown, not shown: small tags and cut ends)
VH: EVQLLESGGGLVQPGGSLRLSCAASNEEFQYNPMWWVRQAPGKGLEWVSVIGSSGGATVYADAVKGRFTISRDNSENTLYLQMNSLRAEDTAVYYCAREWMDHSRPYYYYGMDVWGQGTLVTVSS
VL: B1 VL with Q1S, S2Y, V3E, E28G, S39P, G56E
notes: as for B1
B13: Abet0328 scFv (scFv, V domains shown, not shown: small tags and cut ends)
VH: EVQLLESGGGLVQPGGSLRLSCAASRDPFKADTMWWVRQAPRKRLEWVSVIGAHTTNSAYADSVKGRFTISRDNSKNTLYLQMNSLRAEDTAVYYCAREWMDRSRPYYYYGMDVWGQGTLVTVSS
VL: B1 VL with Q1S, S2Y, V3E, A18V, H25R, S39P, I57V
notes: as for B1
B14: Abet0329 scFv (scFv, V domains shown, not shown: small tags and cut ends)
VH: EVQLLESGGGLVQPGGSLRLSCAASTFNLKRETMWWVRQAPGKGLEWVSVIGSHQERTSYADSVKGRFTISRDNSKNTLYLQMNSLRAEDTAVYYCAREWMDHSRPYYYYGMDVWGQGTLVTVSS
VL: B1 VL with Q1S, S2Y, V3E, L27V, E28S, F31W, A32M, S33T, S39P
notes: as for B1
B15: Abet0332 scFv (scFv, V domains shown, not shown: small tags and cut ends)
VH: EVQLLESGGGLVQPGESLRLSCAASSDSWHTDIMWWVRQAPGKRLEWVSVIGNSNKKIAYADSVKGRFTISRDNSKNTLYLQMNSLRAEDTAVYYCAREWMDHSRPYYYYGMDVWGQGTLVTVSS
VL: SYELTQPPSVSVSPGQTASITCSGHNIGAKWVSWYQQKPGQSPILVIYRDDKRPSGIPERFSASNSGHTATLTISGTQATDEADYYCQAQGQVTRSFGGGTKLTVL
notes: as for B1
B16: Abet0342 scFv (scFv, V domains shown, not shown: small tags and cut ends)
VH: B1 VH with N28D, N30R, H31R, Q32S, K53A, T54Q, N55T, E56Q, I58K
VL: B1 VL with Q1S, S2Y, V3E, S39P, H68D, T80M, S88Q, S89A, T92S, V93T
notes: as for B1
B17: Abet0344 scFv (scFv, V domains shown, not shown: small tags and cut ends)
VH: EVQLLESGGGLVQPGGSLSLSCAASGFTFSVYTMWWVRQAPGKGLEWVSVIGGNETRKAYADSVKGRFTISRDNSKNRLYLQMNSLRAEDTAVYYCAREWMDHSRPYYYYGMDVWGQGTLVTVSS
VL: B1 VL with S88A, S89T, T92N, V93F
notes: as for B1
B18: Abet0368 scFv (scFv, V domains shown, not shown: small tags and cut ends)
VH: EVQLLESGGGLVQPGGSLRLSCAASGFDFGPSPMWWVRQAPGKGLEWVSVIGKDTQNSTYADSVKGRFTISRDNSKDTLYLQMNSLKAEDTAVYYCAREWMDHSRPYYYYGMDVWGQGTLVTVSS
VL: B1 VL with Q1S, S2Y, V3E, A32T, T77A
notes: as for B1
B19: Abet0370 scFv (scFv, V domains shown, not shown: small tags and cut ends)
VH: B1 VH with N28H, N30P, H31M, Q32S, V33A, K53E, N55P, N57R, I58Q, N77S
VL: SYELTQPPSVSVSPGQTASITCTTPHFNSKFASWYQQKPGQSPVLVIYRDDKRPSGIPERFSASNSGHTATLTISGTQAMDEADYYCQAQDSTTRVFGGGTRLTVL
notes: as for B1

target: T1, biotinylated synthetic human Amyloid beta 1-42 peptide (human, UniProt P05067 672-713, biotinylated (N-terminal biotin in Example 4)); assay: SPR (ProteOn); biotinylated peptide on streptavidin chip, scFv in solution
T1 construct: domain: Amyloid beta 1-42 peptide; Numbers 1-42 count on the Amyloid beta peptide, not on APP; also called biotinylated human Amyloid beta 1-42; N-terminal biotin Abeta 1-42
Protocol: These experiments were performed essentially as described by Karlsson et al. (Karlsson et al., 1991).
The chip surface was regenerated between cycles by a single 60 second injection of 10 mM Glycine pH 2.0 to remove scFv bound to the peptide.
Each scFv at 100-200 nM was sequentially passed over the peptide surface for a sufficient amount of time to observe sensorgrams that could be fitted to an appropriate binding model with confidence. An irrelevant scFv blank was subtracted from the main dataset to reduce the impact of any buffer artefacts or non-specific binding effects. An appropriate binding model was then fitted to the data.

T1 sequence (P05067 672-713 limits assumed): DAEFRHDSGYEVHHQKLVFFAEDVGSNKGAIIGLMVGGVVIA

| Binder | Kd [pM] | koff [s⁻¹] | kon [M⁻¹ s⁻¹] |
| --- | --- | --- | --- |
| B1 | 188 | 2.25e-05 | 120000 |
| B2 | 724 | 0.000176 | 243000 |
| B3 | 391 | 0.000129 | 329000 |
| B4 | 762 | 0.000272 | 357000 |
| B5 | 483 | 8.92e-05 | 185000 |
| B6 | 236 | 6.04e-05 | 256000 |
| B7 | 222 | 3.33e-05 | 150000 |
| B8 | 472 | 6.41e-05 | 136000 |
| B9 | 327 | 4.39e-05 | 134000 |
| B10 | 241 | 5.14e-05 | 213000 |
| B11 | 217 | 3.94e-05 | 181000 |
| B12 | 812 | 0.000165 | 203000 |
| B13 | 729 | 0.000103 | 141000 |
| B14 | 701 | 0.000138 | 197000 |
| B15 | 391 | 0.000129 | 329000 |
| B16 | 421 | 5.73e-05 | 136000 |
| B17 | 739 | 5.73e-05 | 77500 |
| B18 | 482 | 9e-05 | 187000 |
| B19 | 651 | 7.76e-05 | 119000 |

target: T1, biotinylated synthetic human Amyloid …; assay: HTRF epitope competition; purified scFv titrated; competitor Abet0144-GL IgG1-TM
Protocol: (§1) Two thousand and twenty four scFv chosen at random from selection rounds 3 and 4 of the targeted mutagenesis approach described in section 1.2 were expressed in bacteria to produce unpurified periplasmic scFv.
(§2) One thousand six hundred and seventy two scFv, randomly selected from selection rounds 9 to 11, were screened in an epitope competition assay as described in section 1.3.
(§3) Where the assay was performed more than once, the absolute range of IC₅₀ values is provided.

| Binder | IC50 [pM] |
| --- | --- |
| B1 | 480 |
| B2 | 380 |
| B3 | 680 |
| B4 | 500 |
| B5 | 840 |
| B6 | 420 |
| B7 | 730 |
| B8 | 970 |
| B9 | 690 |
| B10 | 470 |
| B11 | 750 |
| B12 | 710 |
| B13 | 550 |
| B14 | 630 |
| B15 | 910 |
| B16 | 590 |
| B17 | 770 |
| B18 | 550 |
| B19 | 760 |

target: T1, biotinylated synthetic human Amyloid …; assay: HTRF epitope competition; purified scFv titrated; competitor Abet0144-GL IgG1-TM; range of repeats
Protocol: as §1, §2, §3

| Binder | IC50 [pM] |
| --- | --- |
| B2 | 260 to 490 |
| B3 | 520 to 760 |
| B4 | 460 to 530 |
| B6 | 410 to 430 |
| B7 | 690 to 760 |
| B12 | 430 to 980 |
